Tests used:
[1] = Circulating pharmacokinetics of FC5 containing molecules in rats; type: in vivo; details: rat, intraperitoneal 3 mpk; for Beta-phase half life (h), assay format Fluorescence: AL680 labeled molecules, fluorescence from sera
Procedure: To understand the exposure of the BBB endothelium to each of the FC5 containing antibodies the pharmacokinetics the molecules were determined in rats. Animals were dosed intraperitoneally at 3 mpk with either the FC5 Vhh N-terminally (FC5-Fc) or C-terminally (Fc-FC5) fused to a human Fc domain. Concentrations of FC5-Fc or Fc-FC5 in the plasma were determined at various time points by ELISA. The results were analyzed to determine the beta-phase half-lives of each construct (Table II).
Half-life was determined by ELISA detection of the human Fc from rat serum or with AL680 labeled molecules and the fluorescence determined from the sera. No difference was observed between molecules in which the half-life was determined by fluorescence versus ELISA. Molecules were injected intraperitoneal at 3 mpk.

mu pain receptors = biological target: T1, mu pain receptors (Rattus norvegicus, UniProt P33535); experiment: Hargreaves model of thermal pain, Dalargin alone or linked; type: in vivo; details: for Fold potency compared to FC5-Dal in Hargreaves model: IV, based on molar ratio of Dalargin injected
T1 construct: from tissue; host or cells: rat brain (periaqueductal region), in vivo
Source text: The Hargreaves model measures increased sensitivity to thermal pain induced by injection of Freud's adjuvant in a paw. The thermal pain can be suppressed upon binding of a six amino acid peptide Dalargin to the mu pain receptors expressed in the peri-aquaductal portion of the brain. […] Thus intravenously injected Dalargin must be linked to a receptor mediated transporter to allow cross BBB transport and suppression of pain. To evaluate the transport of Dalargin mediated by FC5 containing molecules across the BBB the Hargreaves animal model was used to compare the potency of various molecular forms of FC5 Vhh linked to Dalargin. The negative control molecule for FC5-Dalargin was EG2-Dalargin and for FC5-Fc-Dalargin was Fc-FC5-Dalargin.
Prior to intravenous (IV) injection each molecule was initially tested by intracerebroventricular (ICV) injection as a positive control to insure all linked molecules are functionally active and able to induce pain suppression. Both negative control and positive test molecules would be expected to suppress pain upon ICV injection as the molecules are injected directly into the cerebral spinal fluid and are able to diffuse to and block the periacquiductal mu pain receptors. […] Next each Dalargin labeled molecule and corresponding Dalargin labeled control protein were evaluated for efficacy upon IV administration. Initially, the efficacy of FC5-Dal versus the control (EG2-Dal) was compared. […] It is interesting to note that three doses of FC5-Dal at 7.5 mg per kg (mpk) per dose as needed prior to observing the initial pain suppression.
Chronic pain suppression is expressed as the percentage of maximum possible effect (% MPE). The value is based on the area under the curve for pain suppressed animal relative to the contralateral control paw over the time frame of measurement. The efficacy of molecules injected either ICV or IV is shown as a percent of maximum possible effect (% MPE) in the Hargreaves model. […] Dose in mpk for intravenous (IV) dosing values are indicated as per injection followed by the number of injections.

[2] = test system: immortalized adult rat brain endothelial cells (SV-ARBEC); experiment: In vitro transport rate across BBB endothelial cell monolayer; type: in vitro ADME; details: compared with control antibodies 12F6A, CRL2434 and C37H; FIG. 3
Source text: We used an in vitro BBB endothelial cell layer to model in vivo cross BBB flux rates for each FC5 containing protein. The in vitro model uses a monolayer of immortalized adult rat brain endothelial cells (SV-ARBEC) in a monolayer assay system validated for tightness with small molecules (Garberg, P., Ball, M., Borg, N., Cecchelli, R., Fenart, L., Hurst, R. D., Lindmark, T., Mabondzo, A., Nilsson, J. E., Raub, T. J., Stanimirovic, D., Terasaki, T., Oberg, J. O., and Osterberg, T. (2005) Toxicol In Vitro 19(3), 299-334). The methods for the in vitro flux rate determinations are nearly identical to those described in (Caram-Salas, N., Boileau, E., Farrington, G. K., Garber, E., Brunette, E., Abulrob, A., and Stanimirovic, D. Methods in molecular biology 763, ed. 2010, 383-401).

SV-ARBEC = experiment: Fluorescent flow cytometry binding to SV40 transformed rat BBB endothelial cells; details: SV40 transformed cell line vs primary cells
Procedure: (§1) The binding affinity of each molecule was evaluated in separate Fluorescent Flow Cytometry assay using freshly isolated rat BBB endothelial cells, SV40 transformed rat BBB endothelial cells (Caram-Salas, N., Boileau, E., Farrington, G. K., Garber, E., Brunette, E., Abulrob, A., and Stanimirovic, D. Methods in molecular biology 763, ed. 2010, 383-401) and to Hek293 cells transiently transfected with the previously identified target TMEM30A.

Primary rat BBB EC = experiment: Fluorescent flow cytometry binding to primary rat BBB endothelial cells; details: read-out: Affinity (nM), Primary rat BBB EC
Procedure: as §1

T1 sequence (P33535 whole entry): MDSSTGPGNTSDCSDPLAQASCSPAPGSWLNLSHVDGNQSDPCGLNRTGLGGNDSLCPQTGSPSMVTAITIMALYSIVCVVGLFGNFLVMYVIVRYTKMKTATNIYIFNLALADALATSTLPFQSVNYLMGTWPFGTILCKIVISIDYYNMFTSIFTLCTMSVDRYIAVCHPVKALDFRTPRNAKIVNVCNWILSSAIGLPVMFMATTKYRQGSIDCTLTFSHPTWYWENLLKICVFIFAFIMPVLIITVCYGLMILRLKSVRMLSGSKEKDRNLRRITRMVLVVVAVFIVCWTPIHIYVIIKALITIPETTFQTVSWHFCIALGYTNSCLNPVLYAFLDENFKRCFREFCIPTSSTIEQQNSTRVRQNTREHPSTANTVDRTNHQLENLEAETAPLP

| Molecule | half-life when fused to a human Fc compared with FC5 Vhh alone [1] | Beta-phase half life (h), assay format Fluorescence [1] [h] | Beta-phase half life (h), assay format ELISA ([1]; ELISA detection of human Fc from rat serum) [h] | Fold potency compared to FC5-Dal in Hargreaves model (mu pain receptors) [fold] | average % MPE after the first 0.5 h (mu pain receptors; rat, single IV dose 0.5 mpk) [% MPE] | rate of transport across in vitro SV40 rat BBB transformed endothelial cell line [2] | fold weaker binding than to primary rat BBB endothelial cells (SV-ARBEC) | Kd (Primary rat BBB EC) [nM] |
| --- | --- | --- | --- | --- | --- | --- | --- | --- |
| FC5-Fc | significantly longer | 39.4 | 35.7 | 80 | 50 | increased rate of transport | about 7 fold |  |
| Fc-FC5 | significantly longer | 38.6 |  | <0.1 |  | increased rate of transport |  |  |
| FC5: llama single domain VHH antibody binding TMEM30A, SEQ ID NO: 10, with myc and His tags (protein, myc and His tags) VHH: EVQLQASGGGLVQAGGSLRLSCAASGFKITHYTMGWFRQAPGKEREFVSRITWGGDNTFYSNSVKGRFTISRDNAKNTVYLQMNSLKPEDTADYYCAAGSTSTATPLRVDYWGKGTQVTVSS |  |  |  | 1 |  | increased rate of transport |  | > 2000 |
